Reference: paper PMC9832388, “A novel method for real-time analysis of the complement C3b:FH:FI complex reveals dominant negative CFI variants in age-related macular degeneration” (Frontiers in Immunology, 2022)

Biological target: C3b (UniProt P01024 23-667; P01024 749-1663)
Assay: cell-based or functional assay

Chain of C3b (P01024 23-667, chain 1 of 2): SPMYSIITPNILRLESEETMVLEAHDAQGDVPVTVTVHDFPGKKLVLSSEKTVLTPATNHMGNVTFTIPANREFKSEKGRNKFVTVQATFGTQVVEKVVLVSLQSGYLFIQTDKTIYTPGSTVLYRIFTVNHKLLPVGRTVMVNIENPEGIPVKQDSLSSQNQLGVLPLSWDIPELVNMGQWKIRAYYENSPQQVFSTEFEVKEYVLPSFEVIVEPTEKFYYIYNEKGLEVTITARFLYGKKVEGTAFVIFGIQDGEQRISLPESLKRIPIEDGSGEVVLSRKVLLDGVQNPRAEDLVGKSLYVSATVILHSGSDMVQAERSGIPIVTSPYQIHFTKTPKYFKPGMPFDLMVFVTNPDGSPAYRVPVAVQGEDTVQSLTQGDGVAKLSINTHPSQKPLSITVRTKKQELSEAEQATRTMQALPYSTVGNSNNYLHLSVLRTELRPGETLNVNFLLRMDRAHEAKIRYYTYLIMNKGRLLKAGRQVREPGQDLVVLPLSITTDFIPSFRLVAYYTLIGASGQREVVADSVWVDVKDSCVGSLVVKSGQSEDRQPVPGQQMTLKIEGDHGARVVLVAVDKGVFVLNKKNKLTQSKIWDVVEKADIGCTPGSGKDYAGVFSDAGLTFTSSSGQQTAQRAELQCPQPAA
Chain of C3b (P01024 749-1663, chain 2 of 2): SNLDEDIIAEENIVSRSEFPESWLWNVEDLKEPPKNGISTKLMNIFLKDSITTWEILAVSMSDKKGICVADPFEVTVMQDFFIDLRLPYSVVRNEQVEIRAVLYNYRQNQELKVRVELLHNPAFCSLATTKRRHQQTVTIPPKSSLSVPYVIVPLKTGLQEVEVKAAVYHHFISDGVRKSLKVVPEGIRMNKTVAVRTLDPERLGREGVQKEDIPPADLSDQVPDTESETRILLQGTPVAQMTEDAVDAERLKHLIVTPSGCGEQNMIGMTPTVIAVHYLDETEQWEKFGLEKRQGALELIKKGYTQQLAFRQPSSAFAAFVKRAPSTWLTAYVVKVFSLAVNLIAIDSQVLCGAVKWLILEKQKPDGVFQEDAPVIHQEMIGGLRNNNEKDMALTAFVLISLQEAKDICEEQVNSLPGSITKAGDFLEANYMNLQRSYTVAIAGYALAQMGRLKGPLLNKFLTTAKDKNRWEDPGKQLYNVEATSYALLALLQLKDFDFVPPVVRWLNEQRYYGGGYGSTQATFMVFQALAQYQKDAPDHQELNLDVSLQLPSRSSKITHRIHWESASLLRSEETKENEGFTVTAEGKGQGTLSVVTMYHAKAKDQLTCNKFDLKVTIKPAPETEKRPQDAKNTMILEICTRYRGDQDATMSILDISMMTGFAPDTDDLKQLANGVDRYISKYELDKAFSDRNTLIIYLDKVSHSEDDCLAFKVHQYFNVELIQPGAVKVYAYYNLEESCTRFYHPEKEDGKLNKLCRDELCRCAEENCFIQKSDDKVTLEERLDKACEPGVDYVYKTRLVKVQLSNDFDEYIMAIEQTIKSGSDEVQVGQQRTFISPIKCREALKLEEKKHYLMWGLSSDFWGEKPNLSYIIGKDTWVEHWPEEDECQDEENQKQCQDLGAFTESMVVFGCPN

B1: I340T FI (enzyme, human)
chain 1: KVTYTSQEDLVEKKCLAKKYTHLSCDKVFCQPWQRCIEGTCVCKLPYQCPKNGTAVCATNRRSFPTYCQQKSLECLHPGTKFLNNGTCTAEGKFSVSLKHGNTDSEGIVEVKLVDQDKTMFICKSSWSMREANVACLDLGFQQGADTQRRFKLSDLSINSTECLHVHCRGLETSLAECTFTKRRTMGYQDFADVVCYTQKADSPMDDFFQCVNGKYISQMKACDGINDCGDQSDELCCKACQGKGFHCKSGVCIPSQYQCNGEVDCITGEDEVGCAGFASVTQEETEILTADMDAERRRIKSLLPKLSCGVKNRMHI
chain 2: TVGGKRAQLGDLPWQVAIKDASGITCGGIYIGGCWILTAAHCLRASKTHRYQIWTTVVDWIHPDLKRIVIEYVDRIIFHENYNAGTYQNDIALIEMKKDGNKKDCELPRSIPACVPWSPYLFQPNDTCIVSGWGREKDNERVFSLQWGEVKLISNCSKFYGNRFYEKEMECAGTYDGSIDACKGDSGGPLVCMDANNVTYVWGVVSWGENCGKPEFPGVYTKVANYFDWISYHVGRPFISQYNV
**Q.** B1 was tested. Which “inhibition of the activity of WT FI in a fluid phase CA assay with increasing I340T FI (~25% at equimolar, 30% at 2-fold molar)” value did it give?
**A.** 30%
